A word on the Km: it is the concentration of substrate that gives half-maximal velocity.

In this series the test system is CSCC[C@H](N)C(=O)O.

Sequence of S-adenosylmethionine synthase isoform type-1 (Rattus norvegicus), P13444 (P13444 whole entry, canonical isoform): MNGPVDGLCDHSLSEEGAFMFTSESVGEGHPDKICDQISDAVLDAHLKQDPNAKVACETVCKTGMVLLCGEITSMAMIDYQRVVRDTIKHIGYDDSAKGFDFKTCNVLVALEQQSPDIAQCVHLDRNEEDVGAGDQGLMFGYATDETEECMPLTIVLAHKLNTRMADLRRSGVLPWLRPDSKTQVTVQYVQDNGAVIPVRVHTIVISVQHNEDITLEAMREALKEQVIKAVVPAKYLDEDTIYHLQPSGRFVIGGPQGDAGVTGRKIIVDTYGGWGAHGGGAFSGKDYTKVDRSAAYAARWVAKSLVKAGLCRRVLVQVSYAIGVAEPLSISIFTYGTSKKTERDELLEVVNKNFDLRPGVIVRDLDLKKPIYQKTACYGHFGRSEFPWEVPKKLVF
Description: Compound was evaluated for its inhibitory activity against recombinant S-adenosyl L-Methionine synthetase (alpha-isoform) in rat liver

For “S-adenosylmethionine synthase isoform type-1 (Rattus norvegicus), P13444”, the Km turned out to be 70 µM.

For the origin of these results see ChEMBL document CHEMBL1130856, “A new series of cyclic amino acids as inhibitors of S-adenosyl L-methionine synthetase” (Bioorg Med Chem Lett, 1998).
